The values below come from patent EP3386536A2 (dated 2018).

The target of the test is T1, human FcγRIIIA F158 (human, UniProt P08637 17-208).
T1 construct: also called CD16a F158 variant
Description: BLI (Octet Red 96), FcγR on anti-his tag biosensor, conjugate in solution, avidity binding model.

T1 sequence (P08637 17-208 limits assumed): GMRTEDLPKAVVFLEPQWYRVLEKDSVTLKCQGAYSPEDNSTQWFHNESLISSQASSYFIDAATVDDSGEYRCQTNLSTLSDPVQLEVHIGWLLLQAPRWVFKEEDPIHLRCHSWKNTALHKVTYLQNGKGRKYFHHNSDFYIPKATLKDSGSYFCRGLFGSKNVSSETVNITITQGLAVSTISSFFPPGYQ

B1: SBT040-G2 ATAC11 (antibody, human IgG2, kappa)
heavy: not shown
light: DIQMTQSPSSVSASVGDRVTITCRASQGIYSWLAWYQQKPGKAPNLLIYTASTLQSGVPSRFSGSGSGTDFTLTISSLQPEDFATYYCQQANIFPLTFGGGTKVEIKRTVAAPSVFIFPPSDEQLKSGTASVVCLLNNFYPREAKVQWKVDNALQSGNSQESVTEQDSKDSTYSLSSTLTLSKADYEKHKVYACEVTHQGLSSPVTKSFNRGEC
modifications: ATAC11 may also sit on light chain cysteines; sites not stated; ATAC11 (maleimide linker with gardiquimod) conjugated by cysteine-based bioconjugation; sites not stated; molar ratio about 4.0
notes: also called SBT-040-G2WT conjugated to ATAC11
As for B1, the “fold change against the unconjugated SBT040-G2” value is at most 2 fold.
